Patent publication US20210301026A1 (ULTRAHUMAN TWELVE, published 2021)
Read-outs that look alike come from different tables or passages of the source.

Tests used:
[1] = target: T1, monomeric human CSF1R ectodomain protein (human, UniProt P07333 20-517); assay: SPR Biacore, IgG captured, monomeric CSF1R analyte
T1 construct: also called biotinylated monomeric human CSF1R
Procedure: (§1) Affinity (KD) of purified IgGs was determined via SPR with antigen in-solution on a Biacore 3000 (GE). A mouse anti-human antibody (CH1 specific) was immobilized on a CM5 Sensor Chip to a level of 2000 RU in acetate buffer at pH 4.5 using amine coupling following the Wizard instructions for two channels. One channel was used for background signal correction. The standard running buffer HBS-EP pH 7.4 was used. Regeneration was performed with a single injection of 10 μl of 10 mM Glycine at pH 1.5 at 20 μl/minute. IgG samples were injected for 2 minutes at 50 nM at 30 μl/min followed by and off-rate of 60 seconds. The monomeric ectodomain protein (human CSF1R or cynomolgus monkey CSF1R) was injected in two fold serial dilutions from 100 nM down to 3.1 nM, for 2 minutes at 30 μl/min followed by an off-rate of 300 seconds. The obtained sensorgrams were analysed using the Biacore 3000 evaluation (BIAevaluation) software. The KD was calculated by simultaneous fitting of the association and dissociation phases to a 1:1 Langmuir binding model.
(§2) Biacore analyses of binding affinity were performed for all IgGs to solution-phase, monomeric human and cyno CSF1R proteins (Table 6). […] Affinity differentials of less than 3-fold between human and cyno target orthologs are highly beneficial in pre-clinical drug development analyses as they allow more accurate design and interpretation of e.g. monkey safety, PK and PD modelling experiments.

[2] = target: T2, monomeric cynomolgus monkey CSF1R ectodomain protein (cynomolgus monkey, UniProt P07333 20-517 (human entry)); assay: SPR Biacore, IgG captured, monomeric CSF1R analyte
T2 construct: also called monomeric cyno CSF1R; Cyno CSF1R
T2 chain: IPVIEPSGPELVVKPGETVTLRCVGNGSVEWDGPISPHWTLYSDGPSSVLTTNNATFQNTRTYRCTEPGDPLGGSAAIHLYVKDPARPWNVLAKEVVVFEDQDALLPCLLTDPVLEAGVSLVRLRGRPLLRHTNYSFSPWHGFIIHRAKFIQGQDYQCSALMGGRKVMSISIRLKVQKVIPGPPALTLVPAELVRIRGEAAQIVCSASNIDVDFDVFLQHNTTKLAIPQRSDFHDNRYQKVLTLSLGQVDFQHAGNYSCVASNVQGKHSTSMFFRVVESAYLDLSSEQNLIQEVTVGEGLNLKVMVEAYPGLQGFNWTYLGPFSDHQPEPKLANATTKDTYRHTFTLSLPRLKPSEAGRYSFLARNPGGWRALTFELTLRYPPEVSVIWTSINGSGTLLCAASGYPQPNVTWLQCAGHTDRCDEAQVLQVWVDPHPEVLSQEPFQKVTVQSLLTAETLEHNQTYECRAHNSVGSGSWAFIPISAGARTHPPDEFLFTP
Procedure: as §1, §2

[3] = target: T1, monomeric human CSF1R ectodomain protein; assay: SPR Biacore, IgG captured, monomeric CSF1R analyte; remark: listed apart in the source
Procedure: as §1

[4] = target: T2, monomeric cynomolgus monkey CSF1R …; assay: SPR Biacore, IgG captured, monomeric CSF1R analyte
Procedure: as §1

[5] = target: T1, monomeric human CSF1R ectodomain protein; assay: AlphaScreen competition with mu0301 IgG4(S228P) for biotinylated monomeric human CSF1R
Procedure: The AlphaScreen assay (Perkin Elmer) was performed in a 25 μl final volume in 384-well white microtiter plates (Greiner). The reaction buffer contained 1×PBS pH 7.3 (Oxoid, Cat. nr. BR0014G) and 0.05% (v/v) Tween® 20 (Sigma, Cat. nr. P9416). Purified IgG samples were titrated in three fold serial dilutions starting at 500 nM final concentration and incubated with biotinylated human CSF1R for 20 minutes at room temperature. […] The emission of light was measured in the EnVision multilabel plate reader (Perkin Elmer) and analysed using the EnVision manager software. Values were reported as Counts Per Second (CPS) and corrected for crosstalk. The EC50 values were calculated using the […] in GraphPad Prism software (GraphPad Software, La Jolla, Calif.).

[6] = target: T3, human insulin (human, UniProt P01308 25-54; P01308 90-110, limits assumed); assay: ELISA on human insulin (development risk, polyreactivity), binding score
T3 construct: Coated antigen of the polyreactivity ('PK-risk indicator') ELISA
T3 sequence (P01308 25-54 limits assumed, chain 1 of 2): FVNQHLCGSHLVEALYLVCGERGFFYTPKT
T3 sequence (P01308 90-110 limits assumed, chain 2 of 2): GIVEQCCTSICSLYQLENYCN

[7] = target: T4, cynomolgus monkey CSF1R human Fc tagged recombinant protein (cynomolgus monkey, UniProt P07333 20-517 (human entry), limits assumed); assay: direct titration ELISA on coated cyno CSF1R-Fc, IgG4(S228P) format, OD 450 nm
T4 construct: also called cyno CSF1R-Fc
T4 chain: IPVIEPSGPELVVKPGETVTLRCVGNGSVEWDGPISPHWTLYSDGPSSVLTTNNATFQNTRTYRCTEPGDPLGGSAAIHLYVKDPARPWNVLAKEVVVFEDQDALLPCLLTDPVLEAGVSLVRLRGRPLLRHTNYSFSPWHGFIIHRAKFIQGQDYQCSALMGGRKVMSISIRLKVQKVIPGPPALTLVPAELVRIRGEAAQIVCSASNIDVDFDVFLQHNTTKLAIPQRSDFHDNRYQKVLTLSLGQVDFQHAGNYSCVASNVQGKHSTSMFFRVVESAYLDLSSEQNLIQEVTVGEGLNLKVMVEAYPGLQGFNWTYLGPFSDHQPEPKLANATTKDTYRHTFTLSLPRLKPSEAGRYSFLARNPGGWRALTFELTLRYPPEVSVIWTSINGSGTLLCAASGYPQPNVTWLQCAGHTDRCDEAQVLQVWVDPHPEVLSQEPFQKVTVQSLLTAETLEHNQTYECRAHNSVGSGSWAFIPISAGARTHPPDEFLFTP
Procedure: (§3) Binding and cross-reactivity of the lead panel to the recombinant proteins was initially assessed by binding ELISA. The human CSF1R human Fc tagged recombinant protein and the cynomolgus monkey CSF1R human Fc tagged recombinant protein were coated to the surface of MaxiSorp™ flat-bottom 96 well plate at 1 μg/ml. The purified IgG samples were titrated in two fold serial dilutions starting from 500 nM to 0.008 nM and allowed to bind to the coated antigens. The Fabs were detected using mouse anti-c-myc antibody followed by donkey anti-mouse IgG conjugated to horseradish peroxidase. The IgGs were detected using the mouse anti-human IgG conjugated to horseradish peroxidase. Binding signals were visualized with 3,3′,5,5′-Tetramethylbenzidine Substrate Solution (TMB) and the absorbance measured at 450 nm.

[8] = target: T5, human CSF1R human Fc tagged recombinant protein (human, UniProt P07333 20-517); assay: direct titration ELISA on coated human CSF1R-Fc, IgG4(S228P) format, OD 450 nm
T5 construct: also called human CSF1R-Fc
Procedure: as §3

B1: MH5 (antibody, human IgG4, V domains shown)
VH: QVQLVQSGAEVKKPGSSVKVSCKASGYTFSSYYMIWVRQAPGQGLEWMGDINPYNGGANYAQKFQGRVTITADESTSTAYMELSSLRSEDTAVYYCAREGPYFSNLYVMDYWGQGTLVTVSS
VL: EIVLTQSPATLSLSPGERATLSCRASQSVSYEGENYLNWYQQKPGQAPRLLIYAASNRATGIPARFSGSGSGTDFTLTISSPEPEDFAVYYCQLSNEDLLTFGGGTKVEIK
notes: Designer (maximally humanized) clone; tested as human IgG4(S228P)/Ckappa IgG; also called mAb-2
- Kd [1]: 0.22 nM
- koff [1]: 0.00036 s⁻¹
- kon [1]: 1.7e+06 M⁻¹ s⁻¹
- Kd [2]: 0.62 nM
- koff [2]: 0.00031 s⁻¹
- kon [2]: 500000 M⁻¹ s⁻¹
- Kd [3]: 0.22 nM
- koff [3]: 0.00036 s⁻¹
- kon [3]: 1.7e+06 M⁻¹ s⁻¹
- Kd [4]: 0.62 nM
- koff [4]: 0.00031 s⁻¹
- kon [4]: 500000 M⁻¹ s⁻¹
- IC50 [5]: 2.18 nM

B2: MH4 (antibody, V domains shown)
VH: QVQLVQSGAEVKKPGSSVKVSCKASGYTFSSYYMIWVRQAPGQGLEWMGDINPYNGGANYAQKFQGRVTITADESTSTAYMELSSLRSEDTAVYYCAREGPYFSNLYVMDYWGQGTLVTVSS
VL: EIVLTQSPATLSLSPGERATLSCRASQSVSYQGENYLAWYQQKPGQAPRLLIYDASNRATGIPARFSGSGSGTDFTLTISSLEPEDFAVYYCQLSNQDLLTFGGGTKVEIK
notes: Designer clone, human IgG4(S228P)/Ckappa IgG
- Kd [1]: 1.9 nM
- koff [1]: 0.0024 s⁻¹
- kon [1]: 1.3e+06 M⁻¹ s⁻¹
- Kd [2]: 2.9 nM
- koff [2]: 0.0014 s⁻¹
- kon [2]: 470000 M⁻¹ s⁻¹
- IC50 [5]: 18.9 nM
- fold lower epitope competition than hu0301 [5]: > 2 fold

B3: MH23 (antibody, human IgG4, V domains shown)
VH: QVQLVQSGAEVKKPGSSVKVSCKASGYTFSSHYMIWVRQAPGQGLEWMGDINPYNGGANYAQKFQGRVTITADESTSTAYMELSSLRSEDTAVYYCAREGPYFSNLYVMDYWGQGTLVTVSS
VL: EIVLTQSPATLSLSPGERATLSCRASQSVSYEGENYLNWYQQKPGQAPRAAIYAASNRATGIPARFSGSGSGTDFTLTISSPEPEDFAVYYCQLSNEDLLTFGGGTKVEIK
notes: Deimmunized MH5 derivative, human IgG4(S228P)/Ckappa IgG
- binding result [6]: no binding
- binding result [7]: binds
- binding result [8]: binds

B4: MH38 (antibody, human IgG4, V domains shown)
VH: QVQLVQSGAEVKKPGSSVKVSCKASGYTFSSHYMIWVRQAPGQGLEWMGDINPYNGGANYAQKFQGRVTITADESTSTAYMELSSLRSEDTAVYYCAREGPYFSNLYVMDYWGRGTLVTVSS
VL: EIVLTQSPATLSLSPGERATLSCRASQSVSYEGENYLNWYQQKPGQAPRSAIYAASNRATGIPARFSGSGSGTDFTLTISSPEPEDFAVYYCQLSNEDLLTFGGGTKVEIK
notes: as for B3
- binding result [7]: binds
- binding result [8]: binds

B5: MH6 (antibody, V domains shown)
VH: QVQLVQSGAEVKKPGSSVKVSCKASGYTFSSYYMIWVRQAPGQGLEWMGDINPYNGGANYAQKFQGRVTITADESTSTAYMELSSLRSEDTAVYYCAREGPYFSNLYVMDYWGQGTLVTVSS
VL: EIVLTQSPATLSLSPGERATLSCRASQSVSYEGENYLAWYQQKPGQAPRLLIYAASNRATGIPARFSGSGSGTDFTLTISSLEPEDFAVYYCQLSNQDLLTFGGGTKVEIK
notes: as for B2
- Kd [1]: 0.88 nM
- koff [1]: 0.0012 s⁻¹
- kon [1]: 1.3e+06 M⁻¹ s⁻¹
- Kd [2]: 1.3 nM
- koff [2]: 0.00064 s⁻¹
- kon [2]: 510000 M⁻¹ s⁻¹
- IC50 [5]: 7.74 nM
- fold lower epitope competition than hu0301 [5]: > 2 fold

B6: MH14 (antibody, human IgG4, V domains shown)
VH: QVQLVQSGAEVKKPGSSVKVSCKASGYTFSSAYMIWVRQAPGQGLEWMGDINPYNGGANYAQKFQGRVTITADESTSTAYMELSSLRSEDTAVYYCAREGPYFSNLYVMDYWGQGTLVTVSS
VL: EIVLTQSPATLSLSPGERATLSCRASQSVSYEGENYLNWYQQKPGQAPRSAIYAASNRATGIPARFSGSGSGTDFTLTISSPEPEDFAVYYCQLSNEDLLTFGGGTKVEIK
notes: as for B3
- binding result [6]: no binding
- binding result [7]: binds
- binding result [8]: binds

B7: MH22 (antibody, human IgG4, V domains shown)
VH: QVQLVQSGAEVKKPGSSVKVSCKASGYTFSSHYMIWVRQAPGQGLEWMGDINPYNGGANYAQKFQGRVTITADESTSTAYMELSSLRSEDTAVYYCAREGPYFSNLYVMDYWGQGTLVTVSS
VL: EIVLTQSPATLSLSPGERATLSCRASQSVSYEGENYLNWYQQKPGQAPRSAIYAASNRATGIPARFSGSGSGTDFTLTISSPEPEDFAVYYCQLSNEDLLTFGGGTKVEIK
notes: as for B3
- binding result [6]: no binding
- binding result [7]: binds
- binding result [8]: binds

B8: 30D02 (antibody, human IgG4, V domains shown)
VH: QVQLVQSGAEVKKPGSSVKVSCKASGYTFSSYYMIWVRQAPGQGLEWMGDINPYNGGTTYAQKFQGRVTITADESTSTAYMELSSLRSEDTAVYYCAREGPYFSNLYVMDYWGQGTLVTVSS
VL: EIVLTQSPATLSLSPGERATLSCRASQSVEYQGENYLNWYQQKPGQAPRLLIYAASNRATGIPARFSGSGSGTDFTLTISSLEPEDFAVYYCQLSNQDLLTFGGGTKVEIK
notes: Library-derived clone, tested as human IgG4(S228P)/Ckappa IgG; framework residue limits counted on the grafts
- Kd [1]: 0.48 nM
- koff [1]: 0.00049 s⁻¹
- kon [1]: 1e+06 M⁻¹ s⁻¹
- Kd [2]: 1.7 nM
- koff [2]: 0.00032 s⁻¹
- kon [2]: 190000 M⁻¹ s⁻¹
- IC50 [5]: 3.92 nM

B9: 29B07 (antibody, human IgG4, V domains shown)
VH: QVQLVQSGAEVKKPGSSVKVSCKASGYTFTSYYIIWVRQAPGQGLEWMGDINPYNGGATYAQKFQGRVTITADESTSTAYMELSSLRSEDTAVYYCAREPPYFSNLYVMDYWGQGTLVTVSS
VL: EIVLTQSPATLSLSPGERATLSCRASQSVEYEGDNYLNWYQQKPGQAPRLLIYAASNRATGIPARFSGSGSGTDFTLTISSLEPEDFAVYYCQLSNQDLLTFGGGTKVEIK
notes: as for B8
- Kd [1]: 0.34 nM
- koff [1]: 0.00051 s⁻¹
- kon [1]: 1.5e+06 M⁻¹ s⁻¹
- Kd [2]: 0.79 nM
- koff [2]: 0.00025 s⁻¹
- kon [2]: 310000 M⁻¹ s⁻¹
- IC50 [5]: 3.86 nM
